The target in this assay is human plasmin (formed from plasminogen incubated with equimolar SAK or RGD-SAK) (human).

With “RGD-SAK (staphylokinase with K35 replaced by Arg) (from UniProt P68802 28-163) (natural protein)”, the kcat/Km of plasminogen activation by the preformed equimolar RGD-SAK-plasmin complex, monitored with S-2251 amounted to 37000 M⁻¹ s⁻¹.

For “staphylokinase (SAK) (from UniProt P68802 28-163) (natural protein)”, the kcat/Km of plasminogen activation by the preformed equimolar SAK-plasmin complex, monitored with S-2251 turned out to be 33000 M⁻¹ s⁻¹.
